Experimental data taken from paper PMC6327041 (Nature Communications, 2019).
Changes are numbered by the printed parent chain. Like-named read-outs stand apart in the source and are kept apart here.

Legend:
[1] = molecular target: T1, S287-K347 PHD1 (KDM5A, GST-PHD1) (Homo sapiens, UniProt P29375); test: Fluorescence polarization binding to PHD1 S287-K347
T1 construct: Expression of GST-PHD1 (Ser287-Lys347); GST (N); made in house; host or cells: E. coli BL21(DE3)
T1 sequence (P29375 287-347): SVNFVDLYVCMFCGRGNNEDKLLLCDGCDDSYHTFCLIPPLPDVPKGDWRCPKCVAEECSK
Description: (§1) All PHD1 constructs used (Val291-[…], S287-K347, and S287-K347 D292A) (Supplementary Figure 1) were cloned into a pET41a vector and expressed in BL21(DE3) E. coli cells. Expression and purification of all mutants followed the same protocol. Specifically, cells were induced with 0.4 mM IPTG and grown at 18 °C overnight before the pellet was collected. The cells were resuspended in lysis buffer (140 mM NaCl, 2.7 mM KCl, 10 mM Na2HPO4, 1.8 mM KH2PO4, 0.5 mM TCEP, 50 µM ZnCl2, 1 mM phenylmethylsulfonyl fluoride (PMSF), pH 7.3), lysed by sonication and centrifuged. The supernatant was purified using Glutathione Sepharose 4B resin, washed with high salt buffer (50 mM HEPES, 700 mM KCl, 10% glycerol, 0.5 mM TCEP, […], 1 mM PMSF, pH 8) and low salt buffer (50 mM HEPES, 150 mM KCl, 10% glycerol, 0.5 mM TCEP, […], 1 mM PMSF, pH 8) and recovered by elution using low salt buffer with 30 mM glutathione. The sample was then concentrated and further purified by size-exclusion chromatography using a Hiload 26/60 Superdex 75 gel filtration column. Samples were eluted into 40 mM HEPES, 50 mM KCl, 0.5 mM TCEP, and […] and flash-frozen.
Data from direct FP measurements were fitted to equation 1: FPobs=FPmaxPHD1+FPminKd/Kd+[PHD1]
Data from competition-based FP assays were fitted to equation 2: FPobs=KiFPmaxPHD1+FPminKd+FPminKd[I]/KiKd+[PHD1]+Kd[I] where FPobs is the observed FP, FPmax is the maximum FP value, FPmin is the minimum FP value, [PHD1] is concentration of PHD1, Kd is the dissociation constant, Ki is the inhibition constant referring to the competing peptide and [I] is the competing peptide concentration.

PHD1KDM5B = conditions: cited from earlier work
From the text: This study presents a significant amount of biochemical and biophysical work to reveal the molecular basis underlying the allosteric enhancement in a quantitative manner. […] H ...

[2] = molecular target: T2, S287-K347 PHD1 D292A (KDM5A, GST-PHD1) (Homo sapiens, UniProt P29375, D292A); test: Fluorescence polarization binding to PHD1 S287-K347 D292A; conditions: compared to WT PHD1S287-K347
T2 construct: S287-K347, and S287-K347 D292A; GST (N); made in house; host or cells: E. coli BL21(DE3)
T2 sequence (P29375 287-347 D292A): T1 sequence (P29375 287-347) with D6A
Description: as §1
Data from direct FP measurements were fitted to equation 1: FPobs=FPmaxPHD1+FPminKd/Kd+[PHD1] […]

KDM5A1-797 = molecular target: T3, KDM5A1-797 (Homo sapiens, UniProt P29375); test: KDM5A demethylation, FDH-coupled formaldehyde release assay; assay type: biochemical; conditions: for kcat / Km: 1 μM KDM5A, pH 7.5, room temperature, n ≥ 3, s.e.m.; for Km: read-out: Km
T3 construct: KDM5A1-797 was cloned into a pFASTBAC HTA vector; His (N, cleaved yes); made in house; host or cells: Sf21 insect cells (baculovirus)
T3 sequence (P29375 1-797): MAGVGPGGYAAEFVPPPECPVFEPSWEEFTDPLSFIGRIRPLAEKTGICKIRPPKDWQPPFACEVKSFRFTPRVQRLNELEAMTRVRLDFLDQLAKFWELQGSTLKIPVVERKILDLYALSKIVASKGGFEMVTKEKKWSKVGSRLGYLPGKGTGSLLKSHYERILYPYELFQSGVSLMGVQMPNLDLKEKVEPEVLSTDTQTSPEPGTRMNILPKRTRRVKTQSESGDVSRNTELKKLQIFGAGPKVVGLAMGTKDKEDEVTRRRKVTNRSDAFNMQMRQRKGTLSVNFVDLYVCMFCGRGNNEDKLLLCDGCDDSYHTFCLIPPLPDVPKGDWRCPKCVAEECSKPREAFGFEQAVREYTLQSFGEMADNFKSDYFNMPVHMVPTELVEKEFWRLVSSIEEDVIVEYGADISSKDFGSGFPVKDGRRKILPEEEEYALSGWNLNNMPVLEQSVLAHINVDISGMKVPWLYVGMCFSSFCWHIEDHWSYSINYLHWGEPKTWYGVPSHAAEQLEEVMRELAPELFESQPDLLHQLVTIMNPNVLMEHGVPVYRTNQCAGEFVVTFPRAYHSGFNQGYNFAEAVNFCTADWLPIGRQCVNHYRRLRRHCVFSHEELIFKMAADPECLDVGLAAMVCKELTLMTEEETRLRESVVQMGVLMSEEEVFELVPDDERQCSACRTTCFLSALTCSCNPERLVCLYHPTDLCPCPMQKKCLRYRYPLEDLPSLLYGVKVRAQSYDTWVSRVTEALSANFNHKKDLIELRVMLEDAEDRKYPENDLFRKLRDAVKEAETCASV
Description: WT KDM5A1-797 was expressed in Sf21 cells following Invitrogen Bac-to-Bac baculovirus expression system protocol. KDM5A1-797 was cloned into a pFASTBAC HTA vector. Purified bacmid was transfected in Sf21 cells. Approximately […] cells per well of a six-well dish were allowed to attach in 2 ml of SF-900 II SFM media containing 50 U ml^−1 penicillin and 50 μg ml^−1 streptomycin. While cells attached, 8 μl of Cellfectin II reagent (Invitrogen) in 100 μl of unsupplemented Grace’s medium was mixed with ~2–5 μg of bacmid in 100 μl of unsupplemented Grace’s medium and incubated for 15–30 min at 25 °C. Once cells were attached, media was removed and cells were washed with 2 ml of Grace’s unsupplemented media. The bacmid DNA:Cellfectin mixture was then diluted to 1 ml with Grace’s unsupplemented media and added to the well. Cells with bacmid:Cellfectin II mixture were incubated for 5 h at 27 °C. After 5 h of incubation, bacmid:Cellfectin mixture was removed and replaced with 2 ml of SF-900 II SFM 50 U ml^−1 penicillin and 50 μg ml^−1 streptomycin. Transfected cells were incubated 3–5 days or until signs of viral infection were observed. After transfection, the supernatant was spun down to remove the dead cells. The supernatant was then sterile filtered to obtain the P1 viral stock. To make P2, 20 ml of […] at ~2 × 10^6 cells per ml of sf21 was infected with 2 ml of P1 virus and incubated for 48–60 h. After 56 h, the cells were spun down and the supernatant was collected and sterile filtered to obtain P2 viral stock. Similarly, P3 viral stock from P2 viral stock was obtained. Generally, 1 l of Sf21 at 2 × 10^6 cells per ml was infected with ~40 ml of P3 virus for ~48–56 h. Cells were then collected and resuspended in the lysis buffer (25 mM HEPES pH 7.9, 350 mM NaCl, 5 mM KCl, 1.5 mM MgCl2, 10 mM imidazole, aprotinin 2 μg ml^−1, leupeptin 3 μg ml^−1, pepstatin 3 μg ml^−1, and 1 mM PMSF). Cells were homogenized by emulsiflex. After lysis, the supernatant was recovered by centrifuging at 35k r.p.m. for 45 min, and incubated with cobalt resin equilibrated in lysis buffer for 1 h at 4 °C. After incubation the resin was washed with wash buffer (25 mM HEPES, pH 7.9, 350 mM NaCl, 0.5 mM MgCl2, 10% glycerol, 10 mM imidazole, aprotinin 2 μg ml^−1, leupeptin 3 μg ml^−1, pepstatin 3 μg ml^−1, and 1 mM PMSF). His-KDM5A was eluted with elution buffer (25 mM HEPES pH 7.9, 100 mM NaCl, 0.5 mM MgCl2, 10% glycerol, 100 mM imidazole, aprotinin 2 μg ml^−1, leupeptin 3 μg ml^−1, pepstatin 3 μg ml^−1, and 1 mM PMSF). The His-tag was removed by overnight incubation with TEV protease at 4 °C in the dialysis buffer (25 mM HEPES, pH 7.9, 100 mM NaCl, and 2 mM DTT). After cleavage, protein was further purified by size-exclusion chromatography using a S200 column. Purified KDM5A was eluted, aliquoted and stored at −80 °C in 40 mM HEPES, pH 7.9, 50 mM KCl.
Michaelis–Menten parameters were determined using Graphpad Prism.

Molecule `C[C@H](N)C(=O)N[C@@H](C)C(=O)N[C@H](C(=O)N[C@@H](CCCCN)C(=O)N[C@@H](CCC(N)=O)C(=O)N[C@H](C(=O)N[C@@H](C)C(=O)N[C@@H](CCCNC(=N)N)C(=O)N[C@@H](CCCCN)C(=O)N[C@@H](CO)C(=O)O)[C@@H](C)O)[C@@H](C)O` [H3R2A] has a Kd ([1]; modified H3 10mer N-terminal peptides, competition-based FP, NB = no binding, n ≥ 3, s.e.m., construct not stated in legend, read-out: PHD1 binding Kd (Fig. 4a)) of 205 ± 73 µM.
For “H3K4me0: C-terminal fluorescently labeled unmodified H3 10mer peptide, affinity by direct FP”, the “preference for WT H3 peptide over H3K4A peptide” value ([1]; ratio of Kd) is listed as 2.3 fold, the “decrease in affinity for H3 peptide on mutation of the analogous Asp in KDM5B PHD1” value (PHD1KDM5B; PHD1KDM5B Asp mutant vs WT, ref Klein Cell Rep 2014 and Zhang Protein Cell 2014) is listed as “approximately 6 fold” and the “discrimination of WT H3 over H3K4A peptide” value (PHD1KDM5B; PHD1KDM5B) is listed as 2.5 fold. The “decrease in affinity, D292A vs WT PHD1S287-K347” value ([2]; listed as H3 peptide) was 7.6 fold and the “decrease in affinity, D292A vs WT PHD1S287-K347” value ([2]; listed as unmodified H3 peptide) was “approximately eightfold”.
In the case of “Ac-H3K4me2 21mer: N-terminally acetylated 21mer H3K4me2 peptide (Ala1-Ala21)”, the “binding to PHD1 domain” value ([1]; FP, at the concentrations used in our assays (Supplementary Figure 3a: Ac-H3K4me2-FAM, PHD1S287-K347)) is reported as “does not bind to the PHD1 domain”, the “reduction in Km on addition of effector peptide” value (KDM5A1-797; 38 µM H3 10mer effector peptide vs none) is reported as “fivefold” and the kcat/Km (KDM5A1-797; +H3 10mer peptide (38 µM)) is reported as 427 ± 95 M⁻¹ s⁻¹. For the same molecule, the kcat (KDM5A1-797; +H3 10mer peptide (38 µM)) was 0.0233 ± 0.001 s⁻¹, the Km (KDM5A1-797; +H3 10mer peptide (38 µM)) was 54.7 ± 9.9 µM and the kcat/Km (KDM5A1-797; No effector peptide) was 98 ± 34 M⁻¹ s⁻¹. For the same molecule, the kcat (KDM5A1-797; No effector peptide) was 0.0225 ± 0.00183 s⁻¹ and the Km (KDM5A1-797; No effector peptide) was 229 ± 60 µM.
